This sample holds only a part of the variants without activity.
B1: TPR 5TU (parent)
chain: GGAUCUUCUCGAUCUAACAAAAAAGACAAAUCUGCCACAAAGCUUGAGAGCAUCUUCGGAUGCAGAGGCGGCAGCCUUCGGUGGCGCGAUAGCGCCAACGUUCUCAACUAUGACACGCAAAACGCGUGCUCCGUUGAAUGGAGUUUAUCAUG

Variants of: B1
Test: polymerase ribozyme fitness, log enrichment relative to wild type (log ratio); higher = more active; in vitro selection for triplet polymerase activity
In short: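 Each subunit of a heterodimeric triplet polymerase ribozyme was mutagenized into a library by PCR, transcribed, and subjected to one round of in vitro selection, run in triplicate. Libraries were annealed with a biotinylated primer, the partner subunit and triplets, incubated frozen at −7 °C, and extended constructs were gel-excised, captured on streptavidin beads and recovered by RT-PCR. Input and output libraries were sequenced on Illumina, keeping genotypes with ≥10 input reads and ≥1 read per output. Fitness is log base 2 of genotype enrichment divided by wild-type enrichment, from inverse-variance-weighted replicate averages.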

Variant	polymerase ribozyme fitness (log ratio)
A26G G58C A60G U82C C93G A98U C103A C105G G143U	≤ -4.2
A26G C32A C35A G59U U90C C93G U146G	≤ -4.2
A26C A29U C54G A91G A97U	≤ -4.2
A26U U55G G88U G94A G124A C125G G126A A142U	≤ -4.2
A26U G50C C105A U109G C129U	≤ -4.2
A26U G34U G88C C105U U130A	≤ -4.2
A26C U78C	-3.76
C27A C32U C95G A115C A122U C129A C131A	≤ -4.2
G25U C116U A122U	-4.04
C27G A40C A66G C79U A91C	-4.03
A26U A41C A49U U53A C95U U130A C132A G143A U148C	≤ -4.2
C27A A107G	≤ -4.2
C27G A49G A66C	≤ -4.2
C27G C38A C85A C87G G126A A137G	≤ -4.2
A26U U44A C93A A142C	≤ -4.2
A26G G46U A52G C116U G140C G143C	≤ -4.2
A26U C116U G141A	-1.75
G25U A28C G50C A52C C93G	≤ -4.2
A26U C85U U146G	-1.93
A26U C76A G86C G92C C95A U144G	≤ -4.2
A26C G59A C76U G84U G88A G126A	≤ -4.2
A26C G50A G67A G70C G83U C87U U90C	≤ -4.2
C27A G50C G74C U77C U104A	≤ -4.2
C27A C43A A60U C87A G143U	≤ -4.2

Variant	polymerase ribozyme fitness (log ratio)
A26U U53A C76A G124U U145C	≤ -4.2
C27A A52G C95A C129G G140U A142U	≤ -4.2
G25U G50U A73G U101G	-2.68
A26C G94C	-1.54
A26C G94A	-1.36
A26G C93A G124A	-4.18
G25U A52U U145C	-3.91
C27A G34A G50A A64U U78A G94U A106U G126C U148G	≤ -4.2
A26G C36G C57A G94U A142U G152C	≤ -4.2
A26U C54G C87G A106G U130G	≤ -4.2
A26C C27G A52C G80U A89G	≤ -4.2
A26U C103A	≤ -4.2
C27G C57G U61A A106C	≤ -4.2
G25U C87U A122G	-3.5
A26G A97G	-3.72
A26C A41U	-3.05
C27A C43G G92C U101C U127G U146A	≤ -4.2
A26G C87G U127A C129G	≤ -4.2
A26G C54G C57U C96U C132U	≤ -4.2
G25U A37G C85A U148C	≤ -4.2
G25U U53A A91C G92A C105G G141C	≤ -4.2
C27A U44A U55A A66G C87U C95G A110G C114U U144A	≤ -4.2
A26U G92U	-2.66
A26C C87A	≤ -4.2

Variant	polymerase ribozyme fitness (log ratio)
C27G C38A G42A G62A G68A A122C G128A U146G	-4.01
C27G C32A C93U C96U	-4.06
C27G A41U C87U A150C	-3.92
C27A C79U	≤ -4.2
G25U C87U	-2.63
G25U C36U C54G	-4.13
G25U G50U C76A C85U G86C G133C	≤ -4.2
A26C A39G G42U A60G U78C C93G G117A	≤ -4.2
A26U A30C A49G G92C	≤ -4.2
A26U A107G G141A	≤ -4.2
A26C C85G C118A	-3.99
A26U U55A A60C	≤ -4.2
C27A U82A A91G C131G U139C	≤ -4.2
G25U G62A	-2.84
A26U U33G C38U A40C U56A G83A A89G A97G G141C	≤ -4.2
A26C U55G G59C	-2.72
A26U C27A A29U G34A U61A C76G	≤ -4.2
A26U A29U G62U C99U C125U U134A	-4.08
C27A U77A G94A C114U	≤ -4.2
C27G A29G A41C G67A G74A	≤ -4.2
C27A U33G U55A C116G	-4.1
A26C U61A	-3.34
G25U C36G A97G U109C	≤ -4.2
C27A C85A C149U	≤ -4.2

Variant	polymerase ribozyme fitness (log ratio)
A26C G58C A60U G71C C93G	≤ -4.2
A26C G92U A106G	-0.538
A26C U61C C85A U151G	≤ -4.2
A26U C87U G141U	-1.66
C27G A49C C51G G84U A98G A110G	≤ -4.2
A26C G65C G84A A89C G141C	≤ -4.2
A26U U31G C36U G81U C149G	≤ -4.2
C27A C85U	-3.43
G25U U31A A64C U90A G124A	≤ -4.2
G25U G84U G117A	-3.67
A26U U55G	-1.36
A26U U55A	-1.66
A26U G42C C72A C93A C116U	≤ -4.2
A26U C85U C96U G143U	-3.94
G25U G58U C69A G71C G94U G100C	≤ -4.2
A26G A41G U53A G74A G141A	≤ -4.2
A26C C123G G141U	-2.47
A26U U44A A97U	≤ -4.2
C27A U56G A60U G86U A97G U111G C132A U135G	≤ -4.2
A26U C51U A89G C105G U134G U144A	≤ -4.2
A26U A40U A120U	-2.33
C27A U44A U61A C95U G117C A121U C129G	≤ -4.2
A26U C116U	-1.09
G25U A28U G50A G83C C87G A89U A91G	≤ -4.2

Variant	polymerase ribozyme fitness (log ratio)
A26C A29G C51U U53G G68A A142C A150G G152A	≤ -4.2
C27A C87A C93A G143C U144G	≤ -4.2
A26G C85G G88C C125U G136A	≤ -4.2
A26U G141U U144G	-3.78
C27A C36G A91U C99U	≤ -4.2
A26G A41G A60U U90G C99A G143U U151C	≤ -4.2
A26U A60C G80C A91U A121C	≤ -4.2
G25U C51U A73U C76U G83U C95U C96U G100U C118G A122G	≤ -4.2
A26C C32U G48C G143A	≤ -4.2
C27A A41U C116U G136C U144A	≤ -4.2
C27G A39G A89C G92A U127A	-4.11
G25U C43U U53A C87A A91C G140A	≤ -4.2
A26G C35U A37U C76A U78A	≤ -4.2
G25U G92C A115G	-3.33
G25U G58U G84A	-2.21
A26U G58C A60C G100A A115G	≤ -4.2
A26C U33A G92C C105G	≤ -4.2
A26U G42C G50U C93A A115U G117C	≤ -4.2
G25U A29U C38U G70C	≤ -4.2
A26U U45A A47C U61G C79G G80U A122G C129G	≤ -4.2
G25U A98U	-3.03
A26U U55G U56A C87U C96U	-3.35
A26C U56C G65A C75U A91U C96U	≤ -4.2
C27G A49G A52C U82G A91G	≤ -4.2

Variant	polymerase ribozyme fitness (log ratio)
G25U C43U U61A G84U C85A A89U C93A C103A G141U	≤ -4.2
A26U G59U C69G A142G	-2.52
A26G A37U C75U G92A G133C G143U	≤ -4.2
A26C C27U C57A G68C C131G	≤ -4.2
C27A C36U G74C C75G G84U C93G A97C G117A	≤ -4.2
C27A A41G C54A C72G C103G G133U G141U U144A U145G	≤ -4.2
A26U G59C U61A C75G A138C	≤ -4.2
C27A G86A U134A A147G	≤ -4.2
A26U C69U	-1.87
A26U G88U C118G G143C	≤ -4.2
A26G G68A C85G A120C	≤ -4.2
A26C A30G U45A A60G A97U U104G G143U	≤ -4.2
A26C A60U U104C	-3.72
A26U G83C G128A U134G U135A U146C	≤ -4.2
A26G U53A	-4.06
A26U C36A U56G C108A A137C	≤ -4.2
C27A A60G C75U C87U G100A C116U U148A	≤ -4.2
A26U C63G G80C C85G U109G A122U	≤ -4.2
A26U C54G	-3.33
C27G A52G U53A G100A	≤ -4.2
G25U A41G	-0.833
G25U A41U	-3
A26G G50C A91G G117A C125U G140A G143C	≤ -4.2
A26U C38A	-2.37

Variant	polymerase ribozyme fitness (log ratio)
C27G C54A G65C C95U C96A C99A	≤ -4.2
C27A U134G U139A	≤ -4.2
A26U U146G	-1.92
C27G A28U G81C G141A	≤ -4.2
C27A U44A U45A C93G	-4.2
C27G C43A C72U C93A C125G G133U G143A	≤ -4.2
A26U C54G U148A	≤ -4.2
G25U A49U G50C U61A C95U	-3.07
A26U C51A A60U G88U C95U C118U G141C	≤ -4.2
C27A C43A A66U C93G G140U G141A U146G	≤ -4.2
G25U G86A	-3.14
G25U A49U C93U A119C	-3.95
C27A G62A C87G A91C	≤ -4.2
A26G A40C G68U	≤ -4.2
A26U G80A	-2.3
A26C G59U A60C U145A	-2.83
G25U G68U G83U U104G A115C	≤ -4.2
A26C C131U	-0.797
G25U G59U C93G C96U U134C	≤ -4.2
A26C C38A G48U C63G C75U C87A C105A	≤ -4.2
A26U A39U G94U A113U A119G U127C G152C	≤ -4.2
A26G G48C A49G A73G C76U G83C G92U U148C	≤ -4.2
C27G A28U U55G U61A C76A C96U C116G G133C	≤ -4.2
